Legend:
purified protein [1] = substrate: O=C(O)c1cc(=O)[nH]c(=O)n1[C@@H]1O[C@H](COP(=O)(O)O)[C@@H](O)[C@H]1O; experiment: purified protein; type: biochemical, Methanothermobacter thermautotrophicus; conditions: 25 °C, pH 7.1, 10 mM MOPS, I = 0.1 (NaCl)
purified protein [2] = substrate: O=C(O)c1cc(=O)[nH]c(=O)n1[C@@H]1O[C@H](COP(=O)(O)O)[C@@H](O)[C@H]1O; experiment: purified protein; type: biochemical, Saccharomyces cerevisiae; conditions: 25 °C, pH 7.1, 10 mM MOPS, I = 0.1 (NaCl)

B1: MtOMPDC (wildtype OMPDC from Methanothermobacter thermautotrophicus) (Methanothermobacter thermautotrophicus str. Delta H) (protein)
chain: MRSRRVDVMDVMNRLILAMDLMNRDDALRVTGEVREYIDTVKIGYPLVLSEGMDIIAEFRKRFGCRIIADFKVADIPETNEKICRATFKAGADAIIVHGFRGADSVRACLNVAEEMGREVFLLTEMSHPGAEMFIQGAADEIARMGVDLGVKNYVGPSTRPERLSRLREIIGQDSFLISPGVGAQGGDPGETLRFADAIIVGRSIYLADNPAAAAAGIIESIKDLLNP
Km (purified protein [1]): 1.5 ± 0.2 µM | kcat (purified protein [1]): 4.7 ± 0.3 s⁻¹ | kcat/Km (purified protein [1]): 3.1e+06 ± 300000 M⁻¹ s⁻¹

B2: ScOMPDC (C155S mutant OMPDC from Saccharomyces cerevisiae) (Saccharomyces cerevisiae S288C; C155S) (protein)
chain: MSKATYKERAATHPSPVAAKLFNIMHEKQTNLCASLDVRTTKELLELVEALGPKICLLKTHVDILTDFSMEGTVKPLKALSAKYNFLLFEDRKFADIGNTVKLQYSAGVYRIAEWADITNAHGVVGPGIVSGLKQAAEEVTKEPRGLLMLAELSSKGSLATGEYTKGTVDIAKSDKDFVIGFIAQRDMGGRDEGYDWLIMTPGVGLDDKGDALGQQYRTVDDVVSTGSDIIIVGRGLFAKGRDAKVEGERYRKAGWEAYLRRCGQQN
Km (purified protein [2]): 1.4 ± 0.2 µM | kcat (purified protein [2]): 15 ± 1 s⁻¹ | kcat/Km (purified protein [2]): 1.1e+07 ± 1e+06 M⁻¹ s⁻¹
